Target: T1, BcGabija GajA (Bacillus cereus, UniProt J8H9C1 1-578)
T1 construct: also called Bacillus cereus GajA nuclease subunit
T1 sequence: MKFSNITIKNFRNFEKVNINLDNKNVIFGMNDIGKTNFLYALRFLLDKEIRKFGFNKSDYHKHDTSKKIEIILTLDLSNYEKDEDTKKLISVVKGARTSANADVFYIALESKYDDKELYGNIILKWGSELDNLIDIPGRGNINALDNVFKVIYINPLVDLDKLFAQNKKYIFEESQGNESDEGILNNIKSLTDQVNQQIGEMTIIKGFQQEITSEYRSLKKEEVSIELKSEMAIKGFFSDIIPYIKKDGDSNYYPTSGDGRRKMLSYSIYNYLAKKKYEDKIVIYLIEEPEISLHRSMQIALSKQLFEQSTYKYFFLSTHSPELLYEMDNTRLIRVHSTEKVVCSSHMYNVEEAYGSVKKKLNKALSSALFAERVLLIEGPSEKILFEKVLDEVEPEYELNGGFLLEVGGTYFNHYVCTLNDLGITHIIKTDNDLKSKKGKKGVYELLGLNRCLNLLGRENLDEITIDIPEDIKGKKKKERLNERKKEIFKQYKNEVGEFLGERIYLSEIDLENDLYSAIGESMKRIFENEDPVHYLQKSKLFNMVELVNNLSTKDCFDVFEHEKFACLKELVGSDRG
Test: mass photometry
Conditions: both partners purified

B1: BcGabija GajB (natural protein)
chain: MSREQIIKDGGNILVTAGAGSGKTTILVSKIEADLKENKTHYSIAAVTFTNKAAKEIEGRLGYSSRGNFIGTNDGFVESEIIRPFIKDAFGNDYPDNFTAEYFDNQFASYDKGLQVLKYQNILGTYSNPKKNFKFQLALDILKKSLVARQYIFSKYFKIFIDEYQDSDKDMHNLFMYLKDQLKIKLFIVGDPKQSIYIWRGAEPENFNGLIENSTDFNKYHLTSNFRCCQDIQNYSNLFNEETRSLIKEKNEVQNVISIADDMPISDILLKLTEEKQVLNIEAELVILVRRRNQAIEIMKELNEEGFNFIFIPQTPLDRATPNATLLKEVIKYVKNDRYSIYDLAAEIVGNLSSREIKEIQKIINELLVPNINQVLINQVLINLFAKLEITLDTREITAFTEVMMTNEFDIAFDTNEYLHKIFTVHSAKGLEFNQVIITASDYNVHYNRDTNEHYVATTRAKDKLIVIMDNKKYSDYIETLMKELKIKNIIKSI
notes: also called NTPase subunit of BcGabija
stoichiometry N: 1 GajA:GajB (4:4)

Reference: article doi:10.1101/2025.07.10.664194 (bioRxiv, 2025)
